# Laboratory results taken from a protein production outcome set (Wang et al. 2014).
# Assay: label from the status in PepcDB records
sequence,measurement,value
MQFIKRAHGEEQPYWPAGPFKIRLPFVHYRWELPEMIQGFFMFVVGLAMIPLLESYLGMPYEAALAFTFVAGVGYILPALLGVPLVPGWITPAIPVVLLYLKGFEPGPEAIRALFALQIEVAIIFLILGATRLGSKLVDVIPNSLKCGIIIGAGMAAMMGELKIGGRIDATPISLIVGSIISAYILFSLSFKNVINENSFARKIANFGMVPGMIIAMLVGWTVGEYPLPDIKWGITNPDFSLMWQYLPFTVGYPDWEIFLLAIPTALIAYVIAFGDILVGFTLVNRVDHIRKDEKIEENVDRVHLVTAIRNGFHAFLAPWPGLAGPLWTAAHATVAERYAMGRKSMESIYSGGGTFWMSGLLALFALPLVTLFKPVLPIALSLTLVLTAYICIMVGMEQLKNSTERGVAGIVAVTLAMPDPKSTMYAVCIGVILYFLIERPRLMGKHNSEDNIIFADETQEEVAVTNSNNT,protein production,failed
PDAARKAQILWCQPDRAKAWTDWMRKGKFPVGGSICDNPVAETTSLGEQFGFNGTPTLVFPNGRSQSGYSPMPQLEEIIRKNQ,protein production,not failed
MSHSLKDFLEACETLGTLRLIVTSSAAVLEARGKIEKLFYAELAKGKYANMHTEGFEFHLNMEKITQVKFETGEAKRGNFTTYAIRFLDEKQESALSLFLQWGKPGEYEPGQVEAWHTLKEKYGEVWEPLPVQL,protein production,not failed
MGSSHHHHHHSSGENLYFQGHMKTADLCDQFLDELQVCELPFQSYGGKRMFSGPIATVDVFEDNVLVREALETVPPGTVLVVDGKGSRRVALLGDRLAQIACERGLAGVIIHGCIRDSAEIGAMPIGVMAIGTCPVKSKKEGKGARDVVLEFGGVRWEPGAYVYADADGVVVANKDLLAKNG,protein production,not failed
VTSDNAAFEGTFKEMFRRHAAGVAIITVNYNGTPYGFTATSVASLSAQPPRFTFNMARSSSSWPAIANTTHIGVHMLGLDNQELADRFARTKNRFEGDHWELGPYEVPILKDVAGWLIGKIQMRLSFENNAVVVVEVVEGQVGEDGTPLLYHSGAYSQPVPLDYEI,protein production,not failed
MGEKVSIILTSYNKPDYLQKAIESVIQQTHDLWELFIMDDHSNAETTAVIHKYLHDRRIQYHNSFVHPADRLKTARYATLINSALPFADGDYISYLTDDTVYHPERLSRMVQEFSHKPEAQAVYSKQKVVHVNERGEEISHFYRNANAVLDQAAFQVDHCSVMHRRSLLNLIHHKFGGYWDDDMKHWNHGDAIFWARLNNFTPFLPINEVLDTTYKTPDSFQNAYRFLPADLIDGSFVKGSDQNVYFFDQGVRHPVGEKWGFLYLNRTVAVPDPYLFQYRIGKILNIPNYILVKEADHPAIFYIEAGKKRRIVDQYAFQFYQFQRKDIVTIGKEEMETLPEGPPITWKRSELIKNPPGRRLFFIEREPFLFLNGVFHPISEQVTRKFFLHQKPISASFRNIQQFPIGKPFYPVYDEIIKKLNIATELEHHHHHH,protein production,not failed
MQGTKIRLMVGGLLLAAASNNVQAEALQPDPAWQQGKLDNGFSWQLLATPQRPSDRIELRLIVNTGSLSENTQEVGFAHLLPRLALMSSASFTPAQLQSLWQQGIDNERPLPPAITSYDFTLYSLSLPNNRPDLLKDALAWLSDTAGNLAVSEQTVNAALNTATDPIATFPQNIQEPWWRYRLKGSSLIGHDPGQPVTQPVDVEKLKQFYQQWYTPDAMTLYVVGNVDSRSIAAQISKAFSELKGKRTAPAAVATLAPLPPEPVSLMNEQAAQDTLSLMWDTPWHPIQDSMALSRYWRSDLAREALFWHIKQVLEKNNQKNLKLGFDCRVQYQRAQCAIHLNTPVENLTANMTFVARELAALRANGLSQAEFDALMTQKNDQLSKLFATYARTDTDILMSQRLRSQQSGVVDIAPEQYQKLRQAFLSGLTLAELNRELKQQLSQDTTLVLMQPKGEPEVNVKALQEIYNGIMAPQTVAEEEVAPAEAVETAPVMPTTAQ,protein production,failed
MVWTGLLIGVLFGVILQRGRICFNSAFRDVLIFKDNYLMRLAALTLGLESITLLIFAQAGIITLNPKPLNWIGNIIGGFIFGMGMVLAGGCASGVTYRTGEGMTTAWFAALAYALTAHATKKGLFSGWIKWLSNYTVTVSNTNPVYAPKTGPTIATVLGISPWIASIIFLALMLWYAFGVKNKSQRPSKLNWIAASVLIAILAPIAWWASASTGRNYGLGITGGWINLVSVYANNASLNWEGAEILGIIIGAAISAIAGKEFKLRMPKNPKTYAQVLLGGFLMGFGAVTAGGCNIGHFLTGVPTLAISSIVASIFFILGNWTMAWFLFGRQK,protein production,failed
MIMEHEYRLEVRGYELDSFGHVNNAVYLNYLEAARWDLCSKLNLTDYNESNELFIVVIETNIKYIRELKLFDKVLIKTELTYEDDYLIFKHNIYNEVTKRKASVAKSKMVLVSKQRIIYEIPQFIKDKLDICAYGLEHHHHHH,protein production,failed
MKTITTTKSPTVKDYIDAYLIERKYCAAPSTLASDLSRAKNINEALGEFPINAVSHTQINMLLVSWHERFRNKTINEHLTILRRISLKAVRDGVIARNPMTGVQNFKTVDPEPNPFTKKELARMHECKNVCTQGQNAVMLNLLTGLRISELIALSWQDINWEREVLYVRRACVLNIYKCPKTKGSVREVDLNPLALKLLKEQLKLTGKRRPQTINILECDNKTFTKDSVSFIFLNTKTNQPFTDAKEFTERFFIKFLEQAGVAHRGVGQLRHTFASQCLTTGISKDWLAVQMGHKSTTMIDKHYGRWIREDSPNYAREAAQHLQDIFGLPQIKPTVTLPAVPHSSLVLLKKLQSKPQLIQLLEGMLESDR,protein production,failed
MGRKNSPSERERELQNLIAQYEAVKAKNESLYLDGDQLADIADLYASERKFKEAQEVITYGLGLHPGHTDLMVEQAYLFLDLNQPQKAKEVAELITDTYSSNVKLLLAELLLNEGKLDAADQMLDSIEEEEKNDLGILVDIVYLYTDLGYPEKGVQWLKRGAEMYKDDEDFLAATADCYGAAGAEYIEQAIVVFNKLIDKNPYNPAYWVGLAKCQFATKDFDKAIESCDFAIAADEEFGEAHIIKAHSLFHLENIEGAIVEYRKALKYKTLSPEFTYMFIGLAYTQQENWAEANESYSMALRAIEENGNGSSPLLSDIYSNKALCASRQGDSEEAHRLCRLAKELAPQDAEPYLLEGRIYMEEDNFDLARAEWALALRYAPEADTWMEIGNYSLEFRMLENARFCFEQVLEEDPEYPKICEQLAAVCLVLQDHEGFKKYNAMSGDSINLDSLRDTILEMGVDGEQMLRELDDFLKDEK,protein production,failed
MKSVKTLLTRPFNWVVLTFCIIFVGLFIFTFFNAKFYDTPIGQITQINNTQSTQVSDEHHNKDTKHKETLHIHILNGKFEGKTTTITHEYTESQADSEAFSKNDKVLLHVDKNLTTAYITEKKRDSLVVAITGIFLLTVLLVGKKIGLQSILSLALNTCIVLLAIYIHNQSPNISLFGLMSIAIFISTTLTLVLVTGWQWRTLITIISTLLGTFLCVGITQCIIQITDGSGLKFETMSFLTLPPKEVFLASVMIGSLGAVMDVAITIASGMAEILRRTPDISMRRWALAGCNIGQDIMGTMTNILLFSYLSGSLPMLLIYLKNANTITYTISMNWSLEISRAITGGIGIVLTIPITILLMQVWFKLRGVKS,protein production,failed
MTRRTAFFFDELCLWHAAGPHALTLPVGGWVQPPAAAGHAESPETKRRLKSLLDVSGLTARLQLRSAPPASDEDLLRVHPAHYLERFKALSDAGGGSLGQDAPIGPGSYEIARLSAGLAIAALDAVLAGEADNAYSLSRPPGHHCLPDQAMGFCFFANIAVAIEAAKARHGVERVAVLDWDVHHGNGTQAIYYRRDDVLSISLHQDGCFPPGYSGAEDIGEDRGRGFNLNVPLLPGGGHDAYMQAMQRIVLPALERFRPQLIVVASGFDANAVDPLARMQLHSDSFRAMTAMVRDAAERHAGGRLVVVHEGGYSEAYVPFCGLAVIEELSGVRSAVRDPLRDFIELQQPNAAFRDFQRQRLEELAAQFGLCPAQPLQAAR,protein production,failed
MRASHETTTSMGHDHNHAPSEIRHETPLWWALGLTATFLLAEIIGAFVTNSLALLSDAAHMATDTVGLMIALVAVRLSRRPADARRTYGYVRLEALGALANGALLFAVGGYILWEAAQRVRAPQDIAYGGMLLIAGFGLVINLIAMKLLHAGSGESLNVKGAYLEVWSDMLGSMAVIIGALLIHWTSWQWIDPVLAVLIGLWVLPRTWVLLREAINVLLEGVPKGIDLAQVQQALTSHPGVEDVHDLHVWALASSTPALTAHIVVNEATDRDRLRDALATLLHDRFDIVHVTLQVESGDCGTEPCGTPKPAADAGHDAHHGHSHAHGHSHH,protein production,failed
MRARLYAAFRQVGEDLFAQGLISATAGNFSVRTKGGFLITKSGVQKARLTPEDLLEVPLEGPIPEGASVESVVHREVYRRTGARALVHAHPRVAVALSFHLSRLRPLDLEGQHYLKEVPVLAPKTVSATEEAALSVAEALREHRACLLRGHGAFAVGLKEAPEEALLEAYGLMTTLEESAQILLYHRLWQGAGPALGGGE,protein production,not failed
MLLSSCQSLFSPAYQSTLRPSDNPQTVEQVQKNDPRAQMGAREHPRIVASYGGEYRDAKTERLVARIAGALTAVSENPQQSYRITILNSPAINAFALPGGYLYVTRGLLALANDASEVAAVLSHEMGHVTANHGIERQRREEAEVIASRVVAEVLSSDLAGKQALARGKLRLAAFSRQQELQADVIGVRMLGEAGYDPYASPRFLDSMAAYARFSSADPENDQSLDFLSSHPNTPQRIELARRHARAFGQEGQVGDRGRDWFLDGIDGLLYGDSPQEGYVRGQTFLHGTLGIRFDVPEGFVIDNKVEAVLATGPGDMAIRFDGVADPKQTSLANYLTSGWVAGLLPETVKETQINGLEAATARASADKWDFDVTVIRVGQQIFRFLTAVPKGNTQLDSIANVLRTSFRKMTPQEIASLKPLRVRVVTVKPGETVATMAARMMGTERKLDMFRMINAMSATATLQPGQRVKIISELEHHHHHH,protein production,failed
GMIDGHHHLTQSFAKSLAYGEPSEIFKRIWVPLESNLNEQFVYLCTKLAALESLRGGFTTVCDAGTRSEIGMQLMVRALEETGLRCVLSLICNDGRAHSTLELRQNILENAQIFIKSYKQHKNVHPSLAISIPEVASDDMLYEVSKLCANSNIIFQVHVNEHLASVERSIIQQGMRPLEHLAKVGALGPQTLIAHATMLTPSELLLLQRTDTAVSYNPVASQWKGNAVASAHLMHELNIRFALGTDATRADGFRLLDAAEATQKLIFGIPTGDCSTGGGWMWLDHATTAGAEAVGLSQL,protein production,failed
MALCLNPDCGQPNNDDANSSCATCGSPLLLRDRYRVVKAIGQGGFGATYLGQDLQLPGEPLCVIKQLLPQVQDPEIMLMARELFRREAKTLGRIGSHPQVPTLLDYFEAPEGFYLVQEYIRGKTLEQEVREQGVYSETATKQFLSELLPLLQYLHNQGVIHRDIKPANLLRRDIDRRLVLIDFGAVKDQVSQIQGGSGLTALTSFSVGTRGYAPPEQLAMRPVYSSDLYSLGVTCLFLMTGKGPQDLDYNPVTGELLWRNSVQVSDALATVLGKMLAASVRYRYQRAEQVMTALDLQPYHDSLIQGLSALPPGAPPIKPSSGRTGSGYPSPQERQAEAIRARRRDRSGNRPEQLADAQQIAAWTGGTSNTSGNNSAGRLSLNARDILATYQRGRRDFSQQPLNRIDLSESQLPSVNFQGAQLKESLFVAAQLERADFGQANLHRANLRRANLHQAYFGNADLSFANLQKADLSDAILSNANLRGTNLCGANLRGAKLTPVQLKMAKTNWWTILPDGRRGRLF,protein production,failed
MPKASDIKKGSAIEHNGKVFFVKEISKLTPSGRAGATLFRMRMYDVATGAKSDESFKADDMINLADFSRRSATFSYVDGNEYVFMDSEDYTPYNFNKEAIEEELLFITEETQGLQILIVDGAPVAIELPSAVDLEIVETAPSIKGASASARTKPATMTTGLTVQVPEYIANGEKVKINTTEHKFMSRALEHHHHHH,protein production,failed
MRFRFGVVVPPAVAGARPELLVVGSRPELGRWEPRGAVRLRPAGTAAGDGALALQEPGLWLGEVELAAEEAAQDGAEPGRVDTFWYKFLKREPGGELSWEGNGPHHDRCCTYNENNLVDGVYCLPIGHWIEATGHTNEMKHTTDFYFNIAGHQAMHYSRILPNIWLGSCPRQVEHVTIKLKHELGITAVMNFQTEWDIVQNSSGCNRYPEPMTPDTMIKLYREEGLAYIWMPTPDMSTEGRVQMLPQAVCLLHALLEKGHIVYVHCNAGVGRSTAAVCGWLQYVMGWNLRKVQYFLMAKRPAVYIDEEALARAQEDFFQKFGKVRSSVCSL,protein production,failed
